In US20050208021 one finds activity (% white colonies), activity (fold over background colonies) and activity (% haploid genomes integrated) data, which are given here for three substances.

Data set [1] concerns T1, PhiC31 integrase wild type (Bacteriophage Phi-C31).
T1 sequence: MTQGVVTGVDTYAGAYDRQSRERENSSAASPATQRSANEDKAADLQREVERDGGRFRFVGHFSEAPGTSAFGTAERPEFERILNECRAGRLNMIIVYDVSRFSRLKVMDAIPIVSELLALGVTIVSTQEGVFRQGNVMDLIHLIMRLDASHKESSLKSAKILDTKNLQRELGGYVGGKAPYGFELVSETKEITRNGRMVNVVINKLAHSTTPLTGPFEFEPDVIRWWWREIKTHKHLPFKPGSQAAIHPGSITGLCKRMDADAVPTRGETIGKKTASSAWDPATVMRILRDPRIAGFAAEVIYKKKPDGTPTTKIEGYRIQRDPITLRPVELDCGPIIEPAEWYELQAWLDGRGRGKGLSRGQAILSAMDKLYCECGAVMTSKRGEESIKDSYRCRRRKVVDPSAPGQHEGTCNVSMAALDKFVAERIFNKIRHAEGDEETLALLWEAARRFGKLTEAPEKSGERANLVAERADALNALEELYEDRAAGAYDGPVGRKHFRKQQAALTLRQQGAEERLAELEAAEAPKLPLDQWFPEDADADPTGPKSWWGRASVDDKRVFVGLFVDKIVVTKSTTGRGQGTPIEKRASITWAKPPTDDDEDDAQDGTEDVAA
The experiment in a line: cell_activity.

For data set [2], the system named is T2, PhiC31 integrase mutant 1C1 (Bacteriophage Phi-C31).
T2 sequence: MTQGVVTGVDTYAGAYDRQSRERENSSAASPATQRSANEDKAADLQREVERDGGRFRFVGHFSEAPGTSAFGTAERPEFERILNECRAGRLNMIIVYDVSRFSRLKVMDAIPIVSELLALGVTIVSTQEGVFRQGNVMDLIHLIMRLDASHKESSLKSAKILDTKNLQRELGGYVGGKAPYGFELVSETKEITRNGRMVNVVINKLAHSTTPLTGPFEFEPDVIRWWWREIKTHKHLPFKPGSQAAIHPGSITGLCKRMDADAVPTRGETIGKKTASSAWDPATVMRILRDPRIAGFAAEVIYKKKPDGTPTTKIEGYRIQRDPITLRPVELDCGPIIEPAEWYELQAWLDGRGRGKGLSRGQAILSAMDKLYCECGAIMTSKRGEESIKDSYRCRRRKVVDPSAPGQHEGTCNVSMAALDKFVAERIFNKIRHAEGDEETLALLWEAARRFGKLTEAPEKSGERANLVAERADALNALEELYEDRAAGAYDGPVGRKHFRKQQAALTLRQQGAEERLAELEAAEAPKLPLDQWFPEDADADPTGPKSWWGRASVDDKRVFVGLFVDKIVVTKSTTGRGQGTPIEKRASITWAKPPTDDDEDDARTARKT
Briefly: cell_activity. The note with it: attB donor integration into 293 genome.

In data set [1] (Drosophila S2 cells, +/-11.7, background 1.7), PhiC31 attB/attP in pBCPB+ showed an activity (% white colonies) of 47.8.
In the case of “CGATGTAGGTCACGGTCTCGAAGCCGCGGTGCGGGTGCCAGGGCGTGCCCTTGGGCTCCCCGGGCGCGTACTCCACCTCACCCATCTGGTCCATCATGATGAACGGGTCGAGGTGGCGGTAGTTGATCCCGGCGAACGCGCGGCGCACCGGGAAGCCCTCGCCCTCGAAACCGCTGGGCGCGGTGGTCACGGTGAGCACGGGACGTGCGACGGCGTCGGCGGGTGCGGATACGCGGGGCAGCGTCAGCGGGTTCTCGACGGTCACGGCGGGCATGTCGA (double strand) [PhiC31 attB full length]”, in data set [2], the activity (fold over background colonies) was above 10.
For mouse pseudo attP mpsL1, the activity (% haploid genomes integrated) in data set [1] (mouse liver, partner attB, qPCR, +/-0.89) came to 1.8.
